{
  "source": "patent US20030148973A1",
  "about": "“MAGE-A1 peptides for treating or preventing cancer” (priority 2001, published 2003)",
  "target": "T1, HLA-A0201 molecules on T2 cells (Homo sapiens, UniProt P04439, D140Y/D185E/D98H/E176V/E277Q/G131W/G231S/I119V/I121R/I166T/I218V/L300P/L318F/N151K/N90K/P208A/P217A/Q86G/Q94H/R138H/R169H/T345S)",
  "T1 construct": "endogenous in cells; host or cells: T2 cell line (from Dr. Peter Creswell, Yale University)",
  "test": "Binding and stabilization of surface HLA-A0201 on T2 cells (BB7.2 antibody, flow cytometry)",
  "conditions": "20 μg peptide pulsed onto 10^6 denatured T2 cells, 4 hours at 26° C.; BB7.2 binding detected with FITC conjugate",
  "procedure": "The ability of the MAGE-A1 derived peptides to be presented in the context of HLA-A2 was determined by the ability of such peptides stabilize membrane-bound HLA-A0201 molecules The T2 cell line (Dr. Peter Creswell, Yale University) has been well documented to have a defective TAP (e.g. Transporter for Antigen Processing) transporter function. As a result, the majority of intracellularly generated peptides are not transported into the endoplasmic reticulum and thus are unable to associate with newly synthesized HLA class 1 MHC molecules (e.g. HLA-A0201; Salter, R D and Creswell, P. (1986) EMBO J 5:943). […] The stability of the surface HLA-A0201 molecules can be restored upon interaction with suitable exogenous peptides. […]\nIn order to determine whether the identified nonapeptides can be presented by HLA-A0201, T2 cells were propagated in RPMI complete medium (RPMI medium supplemented with 10% heat-inactivated bovine serum, 120.0 units per ml of penicillin G sodium, 120 μg per ml of streptomycin sulphate, and 0.35 mg per ml of L-glutamine). The ability of MAGE-A1 derived peptides to bind and stabilize surface HLA-A0201 molecules on T2 cells was determined utilizing a standard protocol (Deng, Y. (1997) J Immunol 158:1507-1515). […] The binding of BB7.2 was detected via the addition of 1.0 μg per test of goat anti-mouse IgG-Fc fluorescein (FITC) conjugate (BETHYL Laboratories Inc). […]",
  "data": [
    {"sequence": "CLGLSYDGL (listed as Homo sapiens) [MAGE-A1 174]", "values": [
      {"measurement": "Fluorescence Index (FI)", "value": 1.73}
    ]}
  ]
}
